From patent publication US20130195859

System: plasma derived alpha-1 antitrypsin (AAT)

## recombinant active caspase-1
  caspase-1 activity (in arbitrary units), colorimetric substrate, in vitro with recombinant active caspase-1: AAT has a direct inhibitory effect on caspase-1 activity in vitro
